The test system of the assay is Dicamba. The assay can be described thus: LC-MS/MS screen for oxygenase (DMO) activity: E. coli liquid culture expressing ddmC or a variant, grown with dicamba, DCSA detected in supernatant. The format is cell-based. To be noted: for Changed to: C % of control for set / Changed to: C DCSA values (ppm): residue changed to C; for Changed to: M % of control for set / Changed to: M DCSA values (ppm): residue changed to M. How it is done: An LC-MS/MS screen for oxygenase activity was used to detect DCSA. The method comprises a two stage process made up of a liquid cell culture assay coupled to an LC-MS/MS detection screen. In the liquid cell culture stage, the gene of interest, i.e. ddmC or a variant thereof, was cloned under the control of a promoter (e.g. T7 promoter, pET vector) and transformed into an E. coli host cell. […] Cells were spun down, and the supernatant was filtered and diluted tenfold with the inclusion of 8 μM salicylic acid as an internal standard. Samples of the supernatant, and/or optionally the cell pellet (or lysate thereof), from this first stage were analyzed for DCSA levels (i.e. DMO activity level) by LC-MS/MS.
While many oxygenases such as DMO are multi component systems requiring other helper enzymes for activity, it was observed that components in E. coli may substitute for these helper enzymes or functions. Thus, transformation of E. coli with a single “oxygenase” gene from a multi component system nevertheless results in measurable activity for the gene alone, even without other components being co-transformed into the same E. coli cell. Activity is observed because, in E. coli cells, surrogates with homology to the original helper enzymes (e.g. ferredoxin and reductase) may be utilized. Additionally, E. coli can take up substrate (e.g. dicamba) and excrete the product (e.g. DCSA) into the media supernatant, allowing for the speed and simplicity of this cell based screen. No lysis of cells is required. Alternatively, an HPLC-based assay for DMO activity may be utilized. Promising variants were used as templates for additional rounds DOT and or other mutagenesis methods in an iterative manner. […]
Sets of saturation mutagenesis primers (using NNS degenerate triplets) for 31 residues at the active site and involved in the electron transfer chain as indicated in Table 28 were designed and used to introduce mutations into the ddmC gene by means of terminated PCR on the template (ddmC gene with His tag and two changes, T2S+I123L (SEQ ID NO:23) in pMV4 vector (Modular Genetics, Cambridge, Mass.). Resulting PCR products were treated with DpnI to remove the parental template molecules, self-annealed and transformed into chemically competent E. coli Top10 F′ (Invitrogen, Carlsbad, Calif.). Standard DNA cloning methods were utilized (e.g. Sambrook et al., 1989). The individual colonies were grown in liquid culture. DNA was isolated by a standard miniprep procedure and used to transform the chemically competent E. coli (e.g. BL21(DE3)). […] Cells were spun down, and the supernatant was filtered and diluted tenfold with 8 μM salicylic acid as an internal standard. The DCSA levels (i.e. DMO activity level) were determined by LC-MS analysis as described above (e.g. Example 8).
Additional single substitution variants of DMO at residues corresponding to interaction (e.g. subunit interface) domains and the ferredoxin binding site were also prepared and assayed for their effect on enzymatic activity (See also Examples 8A, 8B) by the LC/MS screen. In most cases shown in Table 29, one conservative and one neutral substitution was tried at a given residue.
Table 30 lists DMO activity data (by LC/MS screen) for 58 variants relative to ddmC_M—6his (the wild type ddmC sequence with an N-terminal His tag (SEQ ID NO: 154), while Table 31 lists DMO activity data (by LC/MS screen) for 1685 variants relative to ddmC_RLE6his (the wild type ddmC sequence with T2S and I123L mutations (SEQ ID NO:23), and a C-terminal 6×His tag). The numbering of residues is based on the numbering found in SEQ ID NO:2 or SEQ ID NO:3.

[1] abbreviates: DCSA relative to control average of the data set.

B1: G266S: DMO variant from NNS mutagenesis, more active than the control (protein)
chain: MATFVRNAWYVAALPEELSEKPLGRTILDTPLALYRQPDGVVAALLDICPHRFAPLSDGILVNGHLQCPYHGLEFDGGGQCVHNPHGNGARPASLNVRSFPVVERDALIWICPGDPALADPGAIPDFGCRVDPAYRTVGGYGHVDCNYKLLVDNLMDLGHAQYVHRANAQTDAFDRLEREVIVGDGEIQALMKIPGGTPSVLMAKFLRGANTPVDAWNDIRWNKVSAMLNFIAVAPEGTPKEQSIHSRGTHILTPETEASCHYFFSSSRNFGIDDPEMDGVLRSWQAQALVKEDKVVVEAIERRRAYVEANGIRPAMLSCDEAAVRVSREIEKLEQLEAARLEHHHHHH
Consider B1, for which the “DMO activity of NNS mutagenesis variants (in words)” value (NNS saturation mutagenesis variants, 200 to 500 μM Dicamba, 30 hrs, 37° C.) is reported as “more active than the control”. Under “residue changed to S, DCSA relative to control average of the data set”, the “Changed to: S % of control for set” value turned out to be 130.25%. The “Changed to: S DCSA values (ppm)” value (residue changed to S, mean +/− SD (n)) is 34.63 +/− 4.14 (4) ppm.

B2: A287C: DMO substitution variant (protein)
chain: MATFVRNAWYVAALPEELSEKPLGRTILDTPLALYRQPDGVVAALLDICPHRFAPLSDGILVNGHLQCPYHGLEFDGGGQCVHNPHGNGARPASLNVRSFPVVERDALIWICPGDPALADPGAIPDFGCRVDPAYRTVGGYGHVDCNYKLLVDNLMDLGHAQYVHRANAQTDAFDRLEREVIVGDGEIQALMKIPGGTPSVLMAKFLRGANTPVDAWNDIRWNKVSAMLNFIAVAPEGTPKEQSIHSRGTHILTPETEASCHYFFGSSRNFGIDDPEMDGVLRSWQCQALVKEDKVVVEAIERRRAYVEANGIRPAMLSCDEAAVRVSREIEKLEQLEAARLEHHHHHH
As to B2, the “Changed to: C % of control for set” value under setting [1] is listed as 109.56%. For the same molecule, the “Changed to: C DCSA values (ppm)” value (mean +/− SD (n)) is on record as 29.13 +/− 5.46 (4) ppm.

B3: N218H: DMO substitution variant (protein)
chain: MATFVRNAWYVAALPEELSEKPLGRTILDTPLALYRQPDGVVAALLDICPHRFAPLSDGILVNGHLQCPYHGLEFDGGGQCVHNPHGNGARPASLNVRSFPVVERDALIWICPGDPALADPGAIPDFGCRVDPAYRTVGGYGHVDCNYKLLVDNLMDLGHAQYVHRANAQTDAFDRLEREVIVGDGEIQALMKIPGGTPSVLMAKFLRGANTPVDAWHDIRWNKVSAMLNFIAVAPEGTPKEQSIHSRGTHILTPETEASCHYFFGSSRNFGIDDPEMDGVLRSWQAQALVKEDKVVVEAIERRRAYVEANGIRPAMLSCDEAAVRVSREIEKLEQLEAARLEHHHHHH
As for B3, the “Changed to: H % of control for set” value (residue changed to H, DCSA relative to control average of the data set) is 104.38%. The “Changed to: H DCSA values (ppm)” value (residue changed to H, mean +/− SD (n)) was 39.9 +/− 9.75 (4) ppm.

B4: A169M: DMO substitution variant (protein)
chain: MATFVRNAWYVAALPEELSEKPLGRTILDTPLALYRQPDGVVAALLDICPHRFAPLSDGILVNGHLQCPYHGLEFDGGGQCVHNPHGNGARPASLNVRSFPVVERDALIWICPGDPALADPGAIPDFGCRVDPAYRTVGGYGHVDCNYKLLVDNLMDLGHAQYVHRANMQTDAFDRLEREVIVGDGEIQALMKIPGGTPSVLMAKFLRGANTPVDAWNDIRWNKVSAMLNFIAVAPEGTPKEQSIHSRGTHILTPETEASCHYFFGSSRNFGIDDPEMDGVLRSWQAQALVKEDKVVVEAIERRRAYVEANGIRPAMLSCDEAAVRVSREIEKLEQLEAARLEHHHHHH
For the molecule B4, the “Changed to: M % of control for set” value under setting [1] was found to be 108.70%. In addition, the “Changed to: M DCSA values (ppm)” value (mean +/− SD (n)) was 28.9 +/− 5.06 (4) ppm.

B5: N218M: DMO substitution variant (protein)
chain: MATFVRNAWYVAALPEELSEKPLGRTILDTPLALYRQPDGVVAALLDICPHRFAPLSDGILVNGHLQCPYHGLEFDGGGQCVHNPHGNGARPASLNVRSFPVVERDALIWICPGDPALADPGAIPDFGCRVDPAYRTVGGYGHVDCNYKLLVDNLMDLGHAQYVHRANAQTDAFDRLEREVIVGDGEIQALMKIPGGTPSVLMAKFLRGANTPVDAWMDIRWNKVSAMLNFIAVAPEGTPKEQSIHSRGTHILTPETEASCHYFFGSSRNFGIDDPEMDGVLRSWQAQALVKEDKVVVEAIERRRAYVEANGIRPAMLSCDEAAVRVSREIEKLEQLEAARLEHHHHHH
With B5, the “Changed to: M % of control for set” value under setting [1] is given as 106.92%. Also, the “Changed to: M DCSA values (ppm)” value (mean +/− SD (n)) is listed as 40.87 +/− 0.62 (2) ppm.

B6: A287E: DMO substitution variant (protein)
chain: MATFVRNAWYVAALPEELSEKPLGRTILDTPLALYRQPDGVVAALLDICPHRFAPLSDGILVNGHLQCPYHGLEFDGGGQCVHNPHGNGARPASLNVRSFPVVERDALIWICPGDPALADPGAIPDFGCRVDPAYRTVGGYGHVDCNYKLLVDNLMDLGHAQYVHRANAQTDAFDRLEREVIVGDGEIQALMKIPGGTPSVLMAKFLRGANTPVDAWNDIRWNKVSAMLNFIAVAPEGTPKEQSIHSRGTHILTPETEASCHYFFGSSRNFGIDDPEMDGVLRSWQEQALVKEDKVVVEAIERRRAYVEANGIRPAMLSCDEAAVRVSREIEKLEQLEAARLEHHHHHH
As to B6, the “Changed to: E % of control for set” value (residue changed to E, DCSA relative to control average of the data set) worked out at 113.40%. For the same molecule, the “Changed to: E DCSA values (ppm)” value (residue changed to E, mean +/− SD (n)) is on record as 30.15 +/− 2.76 (4) ppm.

B7: A287M: DMO substitution variant (protein)
chain: MATFVRNAWYVAALPEELSEKPLGRTILDTPLALYRQPDGVVAALLDICPHRFAPLSDGILVNGHLQCPYHGLEFDGGGQCVHNPHGNGARPASLNVRSFPVVERDALIWICPGDPALADPGAIPDFGCRVDPAYRTVGGYGHVDCNYKLLVDNLMDLGHAQYVHRANAQTDAFDRLEREVIVGDGEIQALMKIPGGTPSVLMAKFLRGANTPVDAWNDIRWNKVSAMLNFIAVAPEGTPKEQSIHSRGTHILTPETEASCHYFFGSSRNFGIDDPEMDGVLRSWQMQALVKEDKVVVEAIERRRAYVEANGIRPAMLSCDEAAVRVSREIEKLEQLEAARLEHHHHHH
For the molecule B7, the “Changed to: M % of control for set” value under setting [1] is listed as 149.32%. Further, where the note is “mean +/− SD (n)”, the “Changed to: M DCSA values (ppm)” value is reported as 39.7 +/− 5.86 (4) ppm.

B8: R248C: DMO substitution variant (protein)
chain: MATFVRNAWYVAALPEELSEKPLGRTILDTPLALYRQPDGVVAALLDICPHRFAPLSDGILVNGHLQCPYHGLEFDGGGQCVHNPHGNGARPASLNVRSFPVVERDALIWICPGDPALADPGAIPDFGCRVDPAYRTVGGYGHVDCNYKLLVDNLMDLGHAQYVHRANAQTDAFDRLEREVIVGDGEIQALMKIPGGTPSVLMAKFLRGANTPVDAWNDIRWNKVSAMLNFIAVAPEGTPKEQSIHSCGTHILTPETEASCHYFFGSSRNFGIDDPEMDGVLRSWQAQALVKEDKVVVEAIERRRAYVEANGIRPAMLSCDEAAVRVSREIEKLEQLEAARLEHHHHHH
Take B8: the “Changed to: C % of control for set” value under setting [1] is recorded as 132.69%. Further, the “Changed to: C DCSA values (ppm)” value (mean +/− SD (n)) is given as 35.28 +/− 12.15 (4) ppm.

B9: R248I: DMO substitution variant (protein)
chain: MATFVRNAWYVAALPEELSEKPLGRTILDTPLALYRQPDGVVAALLDICPHRFAPLSDGILVNGHLQCPYHGLEFDGGGQCVHNPHGNGARPASLNVRSFPVVERDALIWICPGDPALADPGAIPDFGCRVDPAYRTVGGYGHVDCNYKLLVDNLMDLGHAQYVHRANAQTDAFDRLEREVIVGDGEIQALMKIPGGTPSVLMAKFLRGANTPVDAWNDIRWNKVSAMLNFIAVAPEGTPKEQSIHSIGTHILTPETEASCHYFFGSSRNFGIDDPEMDGVLRSWQAQALVKEDKVVVEAIERRRAYVEANGIRPAMLSCDEAAVRVSREIEKLEQLEAARLEHHHHHH
As to B9, for the setting “residue changed to I, DCSA relative to control average of the data set”, the “Changed to: I % of control for set” value is reported as 146.23%. Under “residue changed to I, mean +/− SD (n)”, the “Changed to: I DCSA values (ppm)” value is recorded as 38.88 +/− 3.93 (4) ppm.
